Patent US20190345459A1 (YEDA RESEARCH AND DEVELOPMENT, published 2019)

T1: tetravalent scaffoldin ScafCA(CBM)TF (SEQ ID No. 5)
T1 chain: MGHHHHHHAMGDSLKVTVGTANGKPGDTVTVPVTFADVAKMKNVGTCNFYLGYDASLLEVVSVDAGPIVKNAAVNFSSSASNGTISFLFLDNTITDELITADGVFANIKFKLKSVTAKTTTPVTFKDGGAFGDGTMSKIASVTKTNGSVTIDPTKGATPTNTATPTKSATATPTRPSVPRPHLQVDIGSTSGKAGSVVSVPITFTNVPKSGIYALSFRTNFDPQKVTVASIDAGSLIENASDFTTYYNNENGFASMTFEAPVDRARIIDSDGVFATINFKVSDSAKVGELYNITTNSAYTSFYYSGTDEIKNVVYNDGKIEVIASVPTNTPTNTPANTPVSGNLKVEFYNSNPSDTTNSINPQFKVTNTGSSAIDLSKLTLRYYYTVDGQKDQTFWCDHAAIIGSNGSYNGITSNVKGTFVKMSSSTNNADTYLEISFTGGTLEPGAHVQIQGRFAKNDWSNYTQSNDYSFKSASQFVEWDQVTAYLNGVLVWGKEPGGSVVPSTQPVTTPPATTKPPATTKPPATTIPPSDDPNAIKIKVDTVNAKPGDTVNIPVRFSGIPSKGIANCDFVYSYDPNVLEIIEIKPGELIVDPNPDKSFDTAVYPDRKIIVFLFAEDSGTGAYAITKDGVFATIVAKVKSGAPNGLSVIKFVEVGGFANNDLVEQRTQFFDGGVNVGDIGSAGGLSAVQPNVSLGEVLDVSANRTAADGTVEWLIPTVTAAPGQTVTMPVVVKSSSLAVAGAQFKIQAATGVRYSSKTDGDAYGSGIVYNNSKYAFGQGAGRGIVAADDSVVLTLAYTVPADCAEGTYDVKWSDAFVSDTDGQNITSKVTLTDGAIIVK

T2: C. thermocellum cohesin 3 from CipA (Clostridium thermocellum, UniProt Q06851 560-704)
T2 construct: domain: cohesin 3; also called cohesin T
T2 sequence: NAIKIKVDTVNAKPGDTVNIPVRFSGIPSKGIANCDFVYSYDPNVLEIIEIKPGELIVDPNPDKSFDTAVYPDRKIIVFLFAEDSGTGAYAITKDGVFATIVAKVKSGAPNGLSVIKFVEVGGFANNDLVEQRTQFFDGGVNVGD

B1: t-48A (SEQ ID No. 4) (enzyme)
chain: MAHHHHHHAVESSSTGLGDLNGDGNINSSDLQALKRHLLGISPLTGEALLRADVNRSGKVDSTDYSVLKRYILRIITEVPGHDSAEVTVREIDPNTSSYDQAFLEQYEKIKDPASGYFREFNGLLVPYHSVETMIVEAPDHGHQTTSEAFSYYLWLEAYYGRVTGDWKPLHDAWESMETFIIPGTKDQPTNSAYNPNSPATYIPEQPNADGYPSPLMNNVPVGQDPLAQELSSTYGTNEIYGMHWLLDVDNVYGFGFCGDGTDDAPAYINTYQRGARESVWETIPHPSCDDFTHGGPNGYLDLFTDDQNYAKQWRYTNAPDADARAVQVMFWAHEWAKEQGKENEIAGLMDKASKMGDYLRYAMFDKYFKKIGNCVGATSCPGGQGKDSAHYLLSWYYSWGGSLDTSSAWAWRIGSSSSHQGYQNVLAAYALSQVPELQPDSPTGVQDWATSFDRQLEFLQWLQSAEGGIAGGATNSWKGSYDTPPTGLSQFYGMYYDWQPVWNDPPSNNWFGFQVWNMERVAQLYYVTGDARAEAILDKWVPWAIQHTDVDADNGGQNFQVPSDLEWSGQPDTWTGTYTGNPNLHVQVVSYSQDVGVTAALAKTLMYYAKRSGDTTALATAEGLLDALLAHRDSIGIATPEQPSWDRLDDPWDGSEGLYVPPGWSGTMPNGDRIEPGATFLSIRSFYKNDPLWPQVEAHLNDPQNVPAPIVERHRFWAQVEIATAFAAHDELFGAGAP
B2: f-5A (SEQ ID No. 2) (enzyme)
chain: MAHHHHHHAPSPGTKLVPTWGDTNCDGVVNVADVVVLNRFLNDPTYSNITDQGKVNADVVDPQDKSGAAVDPAGVKLTVADSEAILKAIVELITLPQAVPGTQPGTGTPVERYGKVQVCGTQLCDEHGNPVQLRGMSTHGIQWFDHCLTDSSLDALAYDWKADIIRLSMYIQEDGYETNPRGFTDRMHQLIDMATARGLYVIVDWHILTPGDPHYNLDRAKTFFAEIAQRHASKTNVLYEIANEPNGVSWASIKSYAEEVIPVIRQRDPDSVIIVGTRGWSSLGVSEGSGPAEIAANPVNASNIMYAFHFYAASHRDNYLNALREASELFPVFVTEFGTETYTGDGANDFQMADRYIDLMAERKIGWTKWNYSDDFRSGAVFQPGTCASGGPWSGSSLKASGQWVRSKLQS
B3: Xyn-c-Lac (SEQ ID No. 1), chimeric bifunctional xylanase-dockerin-laccase (enzyme)
chain: MGSSHHHHHHKNADSYAKKPHISALNAPQLDQRYKNEFTIGAAVEPYQLQNEKDVQMLKRHFNSIVAENVMKPISIQPEEGKFNFEQADRIVKFAKANGMDIRFHTLVWHSQVPQWFFLDKEGKPMVNETDPVKREQNKQLLLKRLETHIKTIVERYKDDIKYWDVVNEVVGDDGKLRNSPWYQIAGIDYIKVAFQAARKYGGDNIKLYMNDYNTEVEPKRTALYNLVKQLKEEGVPIDGIGHQSHIQIGWPSEAEIEKTINMFAALGLDNQITELDVSMYGWPPRAYPTYDAIPKQKFLDQAARYDRLFKLYEKLSDKISNVTFWGIADNHTWLDSRADVYYDANGNVVVDPNAPYAKVEKGKGKDAPFVFGPDYKVKPAYWAIIDHKSAGENLYFQGTSPVIVYGDYNNDGNVDALDFAGLKKYIMAADHAYVKNLDVNLDNEVNAFDLAILKKYLLGMVSKLPSQDPNSVTGTVVELAPGIHAGFTGRAGGVSGEPYATLNLGDHVGDDPAAVAENRRRAALGFGISPDRVVWMNQVHGATAVTVTGSGQAGDVDAVVTPEAGLALAVLVADCLPLLVADAAAGVIGAAHAGRPGMAAGVVPALVAEMARHGARPERCVALLGPAICGRCYEVPRDLQDRVARTVPEARCTTAEGTPGLDIRAGVTAQLTNLGVTNITHDSRCTRESADLFSYRRDATTGRFAGYVWRVP
notes: Recombinant, expressed in E. coli, His-tagged; also called xylanase-tagged laccase; bifunctional xylanase-laccase
B4: Xyn11V-a (SEQ ID No. 3) (enzyme)
chain: MHHHHHHDVVITSNQTGTHGGYNFEYWKDTGNGTMVLKDGGAFSCEWSNINNILFRKGFKYDETKTHDQLGYITVTYSCNYQPNGNSYLGVYGWTSNPLVEYYIIESWGTWRPPGATPKGTITVDGGTYEIYETTRVNQPSIKGTATFQQYWSVRTSKRTSGTISVTEHFKAWERLGMKMGKMYEVALVVEGYQSSGKADVTSMTITVGNAPSTSSPPGPTPEPTPRSAFSKIEAEEYNSLKSSTIQTIGTSDGGSGIGYIESGDYLVFNKINFGNGANSFKARVASGADTPTNIQLRLGSPTGTLIGTLTVASTGGWNNYEEKSCSITNTTGQHDLYLVFSGPVNIDYFIFDSKGVNPTPTPTSTTTPTPKFIYGDVDGNGSVRINDAVLIRDYVLGKINEFPYEYGMLAADVDGNGSIKINDAVLVRDYVLGKIFLFPVEEKEELEHHHHHH

Columns and labels:
[1] = target: T1, tetravalent scaffoldin ScafCA(CBM)TF …; assay: electrophoretic mobility on non-denaturing PAGE, equimolar enzymes and scaffoldin
[2] = target: T2, C. thermocellum cohesin 3 from CipA; assay: affinity-based ELISA, cohesin-dockerin binding

Binder	binding result [1]	binding result [2]
B1	binds	
B2	binds	
B3		no binding
B4	binds	
